The text below walks through data of publication PMC8217507 (Scientific Reports, 2021).

Sequences and labels used below:
B1: HuMAb 1E5 (antibody, V domains shown)
VH: QVQLVESGGGVVQPGKSLRVSCAASGFIFSSYGMHWVRQAPGKGLEWVAVISYDGRYKFYADSVKGRFTISRDDSRSTLYLQMNSLRSDDTAVYYCARGRPYIGGDYEYDYFYGMDVWGQGTTVIVSS
VL: IVMTQTPLSSPVTLGQPASISCRSSQSLVHSDGNTYLNWLQQRPGQPPRLLIYNISNRFSGVPDRFSGSGAGTDFTLKINRVEAEDVGVYYCMQATHFPYSFGQGTKLEIK
B2: HuMAb 3G9 (antibody, V domains shown)
VH: EVQLLDSGGGLVQPGGSLRLSCAASGFTFNDYAMTWVRQAPGKGLEWVSTISGSGDGTYYQESLKGRFTISRDNSKNTLYLLMSSLRVDDTAVYYCAKLFGVGDSDGYWGQGTLVTVSS
VL: QAVVTQEPSLTVSPGGTVTLTCGSSTGAVTSDHYFYWFQQKPGQAPRTLIYQTTNKHPWTPARFSGSLLGGKAALTLSGAQPEDEAEYYCLLSYGGGRPVFGGGTKLTVL
notes: also called 3G9-original; 3G9-Original
B3: HuMAb 3E1 (antibody, V domains shown)
VH: EVQLLESGGGLVQPGGSLRLSCAASGFTFSRFAMTWVRQAPGKGLEWVSAISGSGGSTFYADSVKGRFTISRDNSKNTLYLQMNSLRAEDTAVYYCVSLGDAWLLYWTPWGQGSLVTVSS
VL: DVVMTQSPLSLPVTLGQPASISCRSSQSLVHGDGNTYLNWFQQRPGQSPRRLIYNVSNRDPGVPDRFSGSGSGTDFTLKISWVEAEDVGVYYCMQATHLPPTFGGGTKVEI
B4: HuMAb 1C3 (antibody, V domains shown)
VH: EVQLVESGGGLVQPGGSLRLSCAASGFTFSDHYIDWVRQAPGKGLEWVGRTSNRANSYTSEYAASVKGRFTISRDDSKNSVYLQMNSLKTEDTAVYFCARDSGWYDFWGQGTLVTVSS
VL: ALTQPASVSGSPGQSITISCTGPSRDLGANNYVSWYQQHPGKAPKLLIYDINNRPSGVPDRFSGSRSGNTASLTISGLQADDEADYYCSSYTRSRTRVFGGGTKLTVL

One experiment addresses T1, DENV2 (strain 16681) prM-E, wild type (Dengue virus type 2, strain 16681, UniProt P29990).
T1 construct: also called wild-type prM-E; DENV-2 prM-E; source: HEK-293T, transfected, in fixed cells
As to the kind of experiment: flow cytometry on cells. On the technique in general: A flow cytometer gives signals particle by particle.
For B1, the binding result is on record as “binds”.
On the same count and under the same terms, the result for B2 reads “binds”; that for B3, “binds”; that for B4, “binds”.

The target of another experiment is E protein of DENV-2 Indonesian isolate (cosmopolitan genotype, Surabaya) (Dengue virus type 2, cosmopolitan …, UniProt P14340, strain). As to the kind of experiment: cell-based or functional assay.
With B1, the “NT50, neutralization of DENV-2 (Indonesian isolate), Vero cells” value was 0.69 µg/mL.
On the same count and under the same terms, the result for B2 reads 0.02 µg/mL; that for B3, 0.05 µg/mL.
Same read-out and setting: as for B4, the figure is 0.12 µg/mL.
